# Data from doi:10.1101/2020.06.18.159806 (bioRxiv, 2020).
# B1: C-terminal tail of mouse SLAP2 (residues 237-255) (domain or fragment, UniProt Q8R4L0 237-255, looked up)
# chain: LSEGLRESLSSYISLAEDP
# Target: the molecule itself
# Assay: crystal structure
protein,measurement,value
B1,binding result,binds
